Experiments:
[1] = biological target: the molecule itself; experiment: non-reducing SDS-PAGE; final purified tag-free OSM run on 10% tricine SDS-PAGE under reducing and non-reducing conditions, Coomassie stained
[2] = biological target: the molecule itself; experiment: SEC; HiLoad 16/600 Superdex 75 pg, 1x PBS pH 7.4, 1 mL/min; final proteins after tag cleavage

B1: Human Oncostatin M (OSM), tag-free, purified from the MBP-OSM fusion expressed in BL21(DE3) (ligand, UniProt P13725 26-221, looked up)
chain: AAIGSCSKEYRVLLGQLQKQTDLMQDTSRLLDPYIRIQGLDVPKLREHCRERPGAFPSEETLRGLGRRGFLQTLNATLGCVLHRLADLEQRLPKAQDLERSGLNIEDLEKLQMARPNILGLRNNIYCMAQLLDNSDTAEPTKAGRGASQPPTPTPASDAFQRKLEGCRFLHGYHRFMHSVGRVFSKWGESPNRSRR
notes: Oncostatin M, human; Tag removed with TEV protease at ENLYFQ/G; surmised); Printed size 22.05 kDa; also called MBP fusion-derived OSM; OSM purified from MBP-OSM; source: E. coli BL21(DE3), 18 °C, purified (IMAC, TEV protease cleavage, second IMAC); not shown: His6, N-terminal, cleaved; MBP, N-terminal, cleaved
binding result [1]: binds

B2: Human Oncostatin M (OSM), tag-free, purified from the His6-OSM fusion expressed in Origami 2 (ligand, UniProt P13725 26-221, looked up)
chain: AAIGSCSKEYRVLLGQLQKQTDLMQDTSRLLDPYIRIQGLDVPKLREHCRERPGAFPSEETLRGLGRRGFLQTLNATLGCVLHRLADLEQRLPKAQDLERSGLNIEDLEKLQMARPNILGLRNNIYCMAQLLDNSDTAEPTKAGRGASQPPTPTPASDAFQRKLEGCRFLHGYHRFMHSVGRVFSKWGESPNRSRR
notes: Oncostatin M, human; Tag removed with TEV protease at ENLYFQ/G; a glycine probably stays at the N-terminus (surmised from the cysteine numbering); Printed size 22.05 kDa; also called His6 fusion-derived OSM; OSM purified from His-OSM; source: E. coli Origami 2(DE3), 18 °C, purified (IMAC with 2 M urea, TEV protease cleavage, second IMAC); not shown: His6, N-terminal, cleaved
binding result [2]: binds
